According to article PMC8385704:

What follows are substances tested against ACE2-Fc fusion protein (extracellular domain of human ACE2 and the Fc region of human IgG1) (human) (UniProt Q9BYF1) (assay: ELISA).
ACE2-Fc fusion protein (extracellular domain of human ACE2 and the Fc region of human IgG1) (human), sequence (Q9BYF1 18-740): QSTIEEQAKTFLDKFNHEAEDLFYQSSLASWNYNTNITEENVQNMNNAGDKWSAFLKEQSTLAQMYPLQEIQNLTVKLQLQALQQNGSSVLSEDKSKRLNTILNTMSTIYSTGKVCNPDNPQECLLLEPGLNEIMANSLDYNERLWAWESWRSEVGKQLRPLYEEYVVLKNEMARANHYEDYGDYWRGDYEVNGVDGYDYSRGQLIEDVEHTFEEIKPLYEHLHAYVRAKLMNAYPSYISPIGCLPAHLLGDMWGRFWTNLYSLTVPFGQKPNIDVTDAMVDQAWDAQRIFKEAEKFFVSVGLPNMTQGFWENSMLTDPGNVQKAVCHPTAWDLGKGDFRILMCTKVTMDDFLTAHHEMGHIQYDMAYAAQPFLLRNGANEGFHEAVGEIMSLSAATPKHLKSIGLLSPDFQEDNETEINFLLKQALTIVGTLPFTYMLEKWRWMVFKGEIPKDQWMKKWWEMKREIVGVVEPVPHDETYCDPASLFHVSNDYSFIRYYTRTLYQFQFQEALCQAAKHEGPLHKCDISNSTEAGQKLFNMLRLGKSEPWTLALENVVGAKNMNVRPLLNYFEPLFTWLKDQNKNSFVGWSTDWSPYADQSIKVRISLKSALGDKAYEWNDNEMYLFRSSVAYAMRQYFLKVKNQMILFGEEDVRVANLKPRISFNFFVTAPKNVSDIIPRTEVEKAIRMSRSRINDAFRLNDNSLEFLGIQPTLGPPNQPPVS

recombinant S1-subunit or RBD of HCoV-NL63 (domain or fragment), sequence (Q6Q1S2 19-717 limits assumed): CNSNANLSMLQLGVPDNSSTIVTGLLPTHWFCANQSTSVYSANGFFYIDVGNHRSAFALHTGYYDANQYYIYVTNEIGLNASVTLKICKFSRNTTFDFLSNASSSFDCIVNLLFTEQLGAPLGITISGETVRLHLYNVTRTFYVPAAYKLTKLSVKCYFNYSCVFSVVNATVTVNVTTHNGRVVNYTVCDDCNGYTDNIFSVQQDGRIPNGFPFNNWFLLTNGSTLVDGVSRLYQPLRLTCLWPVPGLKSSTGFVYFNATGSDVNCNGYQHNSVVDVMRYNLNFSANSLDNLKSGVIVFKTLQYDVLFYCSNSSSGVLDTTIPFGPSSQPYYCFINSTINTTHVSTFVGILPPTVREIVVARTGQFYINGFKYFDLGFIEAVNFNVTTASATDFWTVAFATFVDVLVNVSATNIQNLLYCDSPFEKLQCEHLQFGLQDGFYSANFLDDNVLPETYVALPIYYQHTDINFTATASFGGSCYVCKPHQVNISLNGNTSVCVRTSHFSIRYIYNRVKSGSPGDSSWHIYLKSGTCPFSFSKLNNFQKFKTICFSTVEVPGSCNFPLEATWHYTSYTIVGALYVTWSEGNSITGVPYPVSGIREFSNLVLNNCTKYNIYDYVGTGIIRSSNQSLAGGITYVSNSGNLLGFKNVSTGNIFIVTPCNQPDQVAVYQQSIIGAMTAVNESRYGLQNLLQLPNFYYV

With “recombinant S1-subunit or RBD of SARS-CoV (domain or fragment)” as the substance, how does the EC50 read?
The EC50 was 1.1 nM.

Which EC50 does the source give for “recombinant S1-subunit or RBD of SARS-CoV-2 (domain or fragment)” here?
Its EC50 is 11.8 nM.

“recombinant S1-subunit or RBD of HCoV-NL63 (domain or fragment)” was tested. Which EC50 did it give?
Its EC50 is 24.2 nM.
